Source: PMC5577263

Molecular target: recombinant mouse α-synuclein amyloid fibrils (mouse) (UniProt O55042)
Assay: SPR

recombinant full-length mouse PrP MoPrP(23-231) (from UniProt P04925 23-231) (natural protein)
KD, first of two (ratio of one of two koff values to kon): 3.1 nM | KD, second of two (ratio of one of two koff values to kon): 36.5 nM
